Experiments:
[1] = molecular target: UCH-L5 (full-length, wild type) (human)
[2] = molecular target: UCH-L5_(M148A/F149A) (human)
Ub-LysGlyTAMRA = Ub-LysGlyTAMRA (UniProt P0CG48); test: fluorescence polarisation
[3] = molecular target: RPN13 DEUBAD domain (aa 265-388) (human) (UniProt Q16186); test: ITC

Sequence of UniProt P0CG48 (P0CG48 whole entry, looked up, the tested form may be a part): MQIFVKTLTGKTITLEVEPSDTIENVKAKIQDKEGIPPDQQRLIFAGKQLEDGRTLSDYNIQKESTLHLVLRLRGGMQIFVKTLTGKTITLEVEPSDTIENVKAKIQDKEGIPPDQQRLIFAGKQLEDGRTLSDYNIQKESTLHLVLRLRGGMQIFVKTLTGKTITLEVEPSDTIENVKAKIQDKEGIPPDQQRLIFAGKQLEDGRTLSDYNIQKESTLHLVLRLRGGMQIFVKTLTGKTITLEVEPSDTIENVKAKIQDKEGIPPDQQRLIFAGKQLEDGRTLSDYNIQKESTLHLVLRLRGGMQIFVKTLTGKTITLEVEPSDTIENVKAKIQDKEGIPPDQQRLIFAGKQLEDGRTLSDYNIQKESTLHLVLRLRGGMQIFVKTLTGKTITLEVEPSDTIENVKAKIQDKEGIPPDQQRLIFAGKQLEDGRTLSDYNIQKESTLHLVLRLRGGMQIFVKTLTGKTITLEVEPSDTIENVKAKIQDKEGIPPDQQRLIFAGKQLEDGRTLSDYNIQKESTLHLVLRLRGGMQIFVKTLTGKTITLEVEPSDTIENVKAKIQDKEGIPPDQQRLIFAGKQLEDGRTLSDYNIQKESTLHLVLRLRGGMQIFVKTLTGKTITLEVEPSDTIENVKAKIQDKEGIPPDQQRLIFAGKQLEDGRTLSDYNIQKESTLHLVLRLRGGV

**Q.** Which results are given for “RPN13 DEUBAD domain (aa 265-388) (from UniProt Q16186 265-388) (domain or fragment)”?
**A.** activation of Ub-AMC hydrolysis by the addition of RPN13^DEU [1]: 7 fold; activation of Ub-AMC hydrolysis by the addition of RPN13^DEU [2]: 2.7 fold

**Q.** How did the Kd (Ub-LysGlyTAMRA) turn out when “UCH-L5 (C88A)/RPN13DEU complex (from UniProt Q9Y5K5-3;Q16186)” was run?
**A.** 2300 nM

**Q.** For “UCH-L5 (full-length, wild type) (enzyme)”, which Kd [3] is on record?
**A.** 6 nM
